{"source": "patent US20050074865", "target": "recombinant human TNFα (RDI) (UniProt P01375)", "sequence (P01375 77-233)": "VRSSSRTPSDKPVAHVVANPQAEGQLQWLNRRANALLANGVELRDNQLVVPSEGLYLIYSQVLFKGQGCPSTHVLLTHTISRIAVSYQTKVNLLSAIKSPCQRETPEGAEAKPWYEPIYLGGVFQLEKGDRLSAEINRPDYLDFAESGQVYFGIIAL"}
{"substance": "ADAM 10", "values": [{"measurement": "inactivation of TNFα bioactivity, L929 cytotoxicity bioassay after overnight digestion", "value": "ADAM 10 (column: Proteases that did not inactivate TNF)"}]}
{"substance": "Enterokinase", "values": [{"measurement": "inactivation of TNFα bioactivity, L929 cytotoxicity bioassay after overnight digestion", "value": "Enterokinase (column: Proteases that did not inactivate TNF)"}, {"measurement": "proteolytic activity towards TNFα and effect in the L929 bioassay", "value": "enterokinase has no proteolytic activity towards TNFα and no effect in the L929 bioassay"}]}
{"substance": "Furin", "values": [{"measurement": "inactivation of TNFα bioactivity, L929 cytotoxicity bioassay after overnight digestion", "value": "Furin (column: Proteases that did not inactivate TNF)"}]}
{"substance": "Kallikrein5", "values": [{"measurement": "inactivation of TNFα bioactivity, L929 cytotoxicity bioassay after overnight digestion", "value": "Kallikrein5 (column: Proteases that did not inactivate TNF)"}]}
{"substance": "MMP3", "values": [{"measurement": "inactivation of TNFα bioactivity, L929 cytotoxicity bioassay after overnight digestion", "value": "MMP3 (column: Proteases that did not inactivate TNF)"}]}
{"substance": "MT5-MMP", "values": [{"measurement": "inactivation of TNFα bioactivity, L929 cytotoxicity bioassay after overnight digestion", "value": "MT5-MMP (column: Proteases that did not inactivate TNF)"}]}
{"substance": "Plasmin", "values": [{"measurement": "inactivation of TNFα bioactivity, L929 cytotoxicity bioassay after overnight digestion", "value": "Plasmin (column: Proteases that did not inactivate TNF)"}]}
{"substance": "Urokinase", "values": [{"measurement": "inactivation of TNFα bioactivity, L929 cytotoxicity bioassay after overnight digestion", "value": "Urokinase (column: Proteases that did not inactivate TNF)"}]}
